From PMC5690283

Biological target: E-Syt2 C2B domain (within the E-syt2 C2AB construct, 343-646, C611S) (human)
Assay: single-molecule force spectroscopy (optical tweezers); the two C2 domains stand on one chain (C2AB); N-terminus held by biotin-streptavidin on a bilayer-coated silica bead or a streptavidin-coated bead, C-terminus on a DNA handle to a polystyrene bead; pulled at 10 nm/s or held at constant trap separation; 25 mM HEPES pH 7.4, 200 mM NaCl, 100 uM Ca2+, room temperature (~23 C)

## E-Syt2 C2A domain (within the E-syt2 C2AB construct, 343-646, C611S) (domain or fragment)
  force at which the two domains dissociate: 8 to 13 pN
  force of reversible dissociation and re-association: 11 pN
